# T1: 인간 FcεRI의 α 서브유니트(FcεRIα)의 가용성 단편 (human, UniProt P12319 26-205, limits assumed)
# T1 construct: domain: 가용성 단편 (soluble fragment); also called soluble sFcεRI; sFcεRI
# T1 sequence (looked up): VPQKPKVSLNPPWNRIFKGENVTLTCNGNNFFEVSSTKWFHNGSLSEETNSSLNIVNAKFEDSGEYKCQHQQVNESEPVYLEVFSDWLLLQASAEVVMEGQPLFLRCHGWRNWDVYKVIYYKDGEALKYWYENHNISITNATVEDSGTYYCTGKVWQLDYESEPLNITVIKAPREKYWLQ
# Target: T1, 인간 FcεRI의 α 서브유니트(FcεRIα)의 가용성 단편
# Assay: phage ELISA, scFv on phage, selected after panning on coated FcεRI
row,Binder,binding result
1,"NPB 312 scFv (scFv, V domains shown) VH: EVQLVQSGAEVKKPGESLKISCEGSGYRFSSYWIAWVRQKPGKGLEWMGIIYPYDSDTKYGPSFGGQVTISADKSINTAYLEWSSLKASDTAMYYCARLALIRGSIIFDYWGLGTLVTVSS VL: QSALTQPRSVSGSPGQSVTISCTGSRGDVGGYDFVSWYRQYPGEAPQLIIYDVSGRPSGVPDRFSGSKSGNTASLTISGLQPEDEADYYCSSYAGSEIYVFGTGTKVTVL",binds
2,"NPB 306 scFv (scFv, V domains shown) VH: EVQLVQSGAEVKKPGESLKISCEGSGYRFSSYWIAWVRQKPGKGLEWMGIIYPYDSDTKYGPSFGGQVTISADKSINTAYLEWSSLKASDTAMYYCARLALIRGSIIFDYWGLGTLVTVSS VL: QSVLTQPSSVSGAPGQRVTISCTGSSSNIGAGYDVHWYQHLPGTAPKLLIYGINIRPSGVPDRFSGSKSDTSASLAITALQAEDEADYYCQSYDSSLRSVVFGGGTKLTVL",binds
3,"NPB 309 scFv (scFv, V domains shown) VH: EVQLVQSGAEVKKPGESLKISCEGSGYRFSSYWIAWVRQKPGKGLEWMGIIYPYDSDTKYGPSFGGQVTISADKSINTAYLEWSSLKASDTAMYYCARLALIRGSIIFDYWGLGTLVTVSS VL: QSVLTQPSSVSGAPGQRVTISCTGSSSNIGADYDVHWYQLVSGAAPKLLIYGYTNRPSGVPDRFSGSKSGTSASLVIAGLQAEDEADYYCQSYDSSLSEVVFGGGTKLTVL",binds
4,"NPB 304 scFv (scFv, V domains shown) VH: EVQLLESGGGLVQPGGSLRLSCAASGLAFSDYYMSWVRLAPGKGLEWVSVISPGSGSKYYADSVKGRFTISRDNSKNTLYLQMNSLRAEDTAVYYCARYVGGMMMKRDFYYAMDVWGQGTLVTVSS VL: QSVLTQPPSASGTPGQRVTISCSGSSSNIGSNAVNWYQQLPGTAPKLLIYYDSHRPSEVPDRFSGSKSGTSASLAISGLRSEDEADYYCGTWDSSLSGYVFGGGTKLTVL",binds
5,"NPB 305 scFv (scFv, V domains shown) VH: EVQLLESGGGLVQPGGSLRLSCAASGLAFSDYYMSWVRLAPGKGLEWVSVISPGSGSKYYADSVKGRFTISRDNSKNTLYLQMNSLRAEDTAVYYCARYVGGMMMKRDFYYAMDVWGQGTLVTVSS VL: QSVLTQPPSASGTPGQRVTISCTGSSSNIGNNDVSWYQQLPGTAPKLLIYSNNQRPSGVPDRFSGSKSGTSASLAISGLRSGDEADYYCGTWDYSLSGYVFGGGTKLTVL",binds
6,"NPB 307 scFv (scFv, V domains shown) VH: EVQLVQSGAEVKKSGESLKISCKGFGYRFTSYWIGWVRQMPGKGLEWMGIIYPGDSDTRYSPSFQGQVTISADKSISTAYLQWSSLKASDTAMYYCAKDNPFTGSFDIWGLGTMVTVSS VL: QSALTQPRSVSGSPGQSVTISCTGTSNDVGGYTYVSWYQQHPGKAPKLMIYDVSKRPSGVPDRFSGSKSGNTASLTISGLQAEDEADYYCSSYAGSYTWVFGGGTKLTVL",binds

# Next, values leading:
row,binding result,Binder
1,binds,"NPB 302 scFv (scFv, V domains shown) VH: EVQLVESGAEVKKPGSSVKVSCKASGGTFSSYAISWVRQAPGQGLEWMGRIIPILGIANYAQKFQGRVTITADKSTSTAYMELSSLRSEDTAVYYCARVNPFGYYYAMDVWGQGTTVTVSS VL: QSVLTQPPSASGTPGQRVTISCSGSTSNIGGNSVNWYQQLPGAAPKLLIYANIQRPSGVPDRFSGSKSGTSASLAISGLQSEDEADYYCASWDDSRNGYVFGTGTKVTVL"
2,binds,"NPB 313 scFv (scFv, V domains shown) VH: EVQLVQSGAEVKKPGSSVKVSCKASGGTFSSYAISWVRQAPGQGLEWMGRIIPILGIANYAQKFQGRVTITADKSTSTAYMELSSLRSEDTAVYYCARVNPFGYYYAMDVWGQGTTVTVSS VL: DIQMTQSPSSVSASVGDRVTIPCRASQGISSWLAWYQQKPGKAPKLLIYAASNLQSGVPSRFSGSGSGTDFTLTISSLQPEDSATYYCQQTDSFPLTFGGGTKVEIK"
3,binds,"NPB 303 scFv (scFv, V domains shown) VH: EVQLVQSGAEVKKSGESLKISCKGFGYTFTRNWIGWVRQMPGKGLEWMGIIYPGDSDTRYSPSFQGQVTISADKSISTAYLQWSSLKASDTAMYYCARDVGNGDYGLDVWGQGTTVTVSS VL: QSALTQPASVSGSPGQSITISCTGTSSDIGGYDFVSWYQQHPGKAPKLIIYDVTRRPSEISNRFSASKSGNTASLTISGLQAEDEADYYCSSYTSSSTPYVFGTGTKVTVL"
4,binds,"NPB 314 scFv (scFv, V domains shown) VH: EVQLVQSGAEVKKPGESLKISCKGSGYTFTKYWIGWVRQMPGKGLEWMGIIYPGDSDTTYSPSFQGQVTISADKSISTAYLQWSSLKASDTAMYYCAKDNPFTGSFDIWGQGTMVTVSS VL: QSALTQPASMSGFPGQSITISCTGTRDDVGNYDLVSWYQQQPAKAPKLLIYEDNKRPSGVSSRFSGSKSGSTASLTISGLQTEDEADYYCCSYAGDYTYVFGTGTKVTVL"
5,binds,"NPB 308 scFv (scFv, V domains shown) VH: EVQLVQSGAEVKKPGESLKISCKGSGYTFTKYWIGWVRQMPGKGLEWMGIIYPGDSDTTYSPSFQGQVTISADKSISTAYLQWSSLKASDTAMYYCAKDNPFTGSFDIWGQGTMVTVSS VL: QSALTQPRSVSGSPGQSVTISCTGTSNDVGGYTYVSWYQQHPGKAPKLMIYDVSKRPSGVPDRFSGSKSGNTASLTISGLQAEDEADYYCSSYAGSYTWVFGGGTKLTVL"

# — KR20120135868A (dated 2012)
